Columns and labels:
SARS-CoV-2 RBD WU1 = SARS-CoV-2 RBD WU1 (SARS-CoV-2 Wuhan-Hu-1, UniProt P0DTC2); experiment: SPR
SARS-CoV1 Spike = SARS-CoV1 Spike (SARS-CoV, strain  (P59594 …, UniProt P59594)); experiment: ELISA

B1: 1301B7 recombinant human monoclonal antibody (hmAb), IgG1 (antibody, V domains shown)
VH: EVQLVESGAEVKNPGSSVKVSCKASEGTFGSYPIIWVRQAPGQGLEWVGGIIPILGTVIYAQKFQGRVTITGDTYAGSAHMELSGLRSEDTAVFYCARGSYDYGDRLLNYTYYAMDVWGPGTTVTVSS
VL: QPGLTQPPSVSGAPGQRVTISCTGSRSNIGAVYAVHWYQHVPGAAPKLLIYENNNRPSGIPDRFSGSKSGTSASLVITGLQAEDEADYLCQSYDRSVGVVFGGGTRLTVL
SARS-CoV-2 RBD WU1
  binding result: binds
SARS-CoV1 Spike
  binding result: binds
